What was measured:
LRP/LRP1B = assay: Ligand binding and cross-linking, LRP/LRP1B immunodetection in U-87 cells; design: species or system human; conditions: 4° C., cross-linked, non-reducing SDS-PAGE (FIG. 29)
Method: FIG. 29. […] U-87 cells were grown in monolayer in six-multiwell microplates at 37° C. under 5% CO2. The cell monolayer were incubated at 4° C. with p97 or RAP in Ringer/Hepes solution. After incubation, cell monolayer was washed 3 times with cold-Ringer/Hepes solution and proteins were cross-linked with 1 mM DSS. After, cells were lysed and equal quantities of protein (25 μg) were subjected to SDS-PAGE under non-reducing conditions and electroblotted onto PVDF membranes. […] (n=2).
Ligand-binding. Briefly, cells were incubated with [^125I]-p97 in Ringer/Hepes solution, in presence or in absence of 5 μM cold-P97 for 1 h at 4° C. After incubation, the cell monolayer was washed three times with cold Ringer/Hepes solution. After the ligand binding at 4° C., cell monolayer was washed three times with cold Ringer/Hepes solution and was incubated with DSS (Disuccinimidyl suberate) or Lomant's reagent DSP (Dithiobis(succinimidyl propionate)) from Pierce. After the cross-link, cells were lysed and proteins were separated by SDS-PAGE electrophoresis. Gels were fixed, dryed and exposed to Kodak films at −80° C. for about 3 weeks before developing. The cross-link was performed exactly as the manufacturer's protocol.

BBCEC monolayers [1] = assay: Transcytosis of bovine [125I]-lactoferrin across BBCEC monolayers, inhibition by p97; assay type: cell-based; conditions: 200-fold molar excess of unlabelled p97, 37° C. (FIG. 16c)
[2] = test system: astrocytes and astrocytoma cells; assay: Uptake of [125I]-p97 in rat astrocytes and astrocytoma cells; assay type: cell-based; conditions: 50 nM p97, 2 h at 37° C. (FIG. 24)
Method: FIG. 24. Uptake of p97 in rat astrocytes and astrocytoma cells. Cells were grown in monolayer in six-multiwell microplates at 37° C. under 5% CO2. Uptake of [^125I]-p97 was measured at 37° C. for 2 h in astrocytes and astrocytomas. The incubation medium contained [^125I]-p97 and a final concentration of 50 nM p97 in Ringer/Hepes solution. After incubation, the cell monolayer was washed three times with cold Ringer/Hepes solution. Triton X-100 0.1% was added and the [^125I]-p97 uptake was assessed in the Triton X-100 soluble fraction by TCA precipitation. Results represent means±SD (n=3, Astro; n=6, CTX and RG2; n=9, C6).
Uptake of [^125I]-p97. Cells were grown in monolayer in six-multiwell microplates at 37° C. under 5% CO2. Uptake of [^125I]-p97 was measured at 37° C. for 2 h in astrocytes and astrocytomas. The incubation medium contained [^125I]-p97 and a final concentration of 50 nM P97 in Ringer/Hepes solution. The uptake of [^125I]-p97 was performed in presence or in absence of 5 μM cold-P97. After incubation, the cell monolayer was wash three times with cold Ringer/Hepes solution. Triton X-100 0.1% was added and the [^125I]-p97 uptake was assessed in the Triton X-100 soluble fraction by TCA precipitation.

BBCEC monolayers [3] = assay: Sucrose permeability of BBCEC monolayers (in vitro BBB model) in the presence of p97; assay type: cell-based, bovine
Method: FIG. 2. Effect of p97 (1 μm) on sucrose permeability with BBCECs that were preincubated for 2 hrs at 37° C. The effect of p97 at 1 μM on sucrose permeability of the in vitro BBB model was tested. The permeability coefficient (Pe) for sucrose was calculated as previously described (Dehouck, et al., J. Neurochem., 58:1790-179 (1992)) using filters coated or non-coated with BBCE cells. Briefly, coated or non-coated filters with BBCE cells were transferred to 6-well plates containing 2 ml of Ringer/Hepes per well (basolateral compartment) for 2 hrs at 37° C. In each apical (i.e., luminal) chamber, the culture medium was replaced by 1 ml Ringer/Hepes containing labeled [^14C]-sucrose. […] At the end of the experiments, amounts of the radiotracers in the basolateral (i.e., abluminal) compartment were measured in a liquid scintillation counter. The permeability coefficient (Pe) was calculated as described in FIG. 1.
FIG. 14 illustrates the stability of p97 and integrity of the BBCEC monolayers following p97 transcytosis. […] The gels were dried and scanned to quantify the amount of intact p97 that crossed the BBCEC monolayers at 37° C. and 4° C. […]
D. Sucrose permeability. The permeability coefficient for sucrose was measured to verify the endothelial permeability and the integrity and tightness of the BBCEC monolayers, as previously described, using uncoated filters or coated with endothelial cells. […]

B1: p97: recombinant human melanotransferrin (p97), provided by Synapse Technologies (protein, UniProt P08582 20-709, looked up)
Melanotransferrin: GMEVRWCATSDPEQHKCGNMSEAFREAGIQPSLLCVRGTSADHCVQLIAAQEADAITLDGGAIYEAGKEHGLKPVVGEVYDQEVGTSYYAVAVVRRSSHVTIDTLKGVKSCHTGINRTVGWNVPVGYLVESGRLSVMGCDVLKAVSDYFGGSCVPGAGETSYSESLCRLCRGDSSGEGVCDKSPLERYYDYSGAFRCLAEGAGDVAFVKHSTVLENTDGKTLPSWGQALLSQDFELLCRDGSRADVTEWRQCHLARVPAHAVVVRADTDGGLIFRLLNEGQRLFSHEGSSFQMFSSEAYGQKDLLFKDSTSELVPIATQTYEAWLGHEYLHAMKGLLCDPNRLPPYLRWCVLSTPEIQKCGDMAVAFRRQRLKPEIQCVSAKSPQHCMERIQAEQVDAVTLSGEDIYTAGKTYGLVPAAGEHYAPEDSSNSYYVVAVVRRDSSHAFTLDELRGKRSCHAGFGSPAGWDVPVGALIQRGFIRPKDCDVLTAVSEFFNASCVPVNNPKNYPSSLCALCVGDEQGRNKCVGNSQERYYGYRGAFRCLVENAGDVAFVRHTTVFDNTNGHNSEPWAAELRSEDYELLCPNGARAEVSQFAACNLAQIPPHAVMVRPDTNIFTVYGLLDKAQDLFGDDHNKNGFKMFDSSNYHGQDLLFKDATVRAVPVGEKTTYRGWLGLDYVAALEGMSSQQC
Association with LRP/LRP1B (LRP/LRP1B): high molecular weight dissociable complex | Inhibition of the transcytosis of bovine [125I]-lactoferrin (BBCEC monolayers [1]): more than 75% | Specific uptake of p97 in astrocytoma cells over astrocytes [2]: greatly increased | Change in sucrose permeability by p97 (BBCEC monolayers [3]; 1 micromolar p97 (FIG. 2)): no significant change | Clearance of sucrose in the presence of p97 (BBCEC monolayers [3]; high concentration of p97 (FIG. 14c)): No significant increase
